Measurements: the Human Domainome abundance scans (Beltran et al. 2025)

B1: DnaJ homolog subfamily C member 2, residues 451 to 503; numbered along this chain, Q99543 (parent)
chain: SKNWSEDDLQLLIKAVNLFPAGTNSRWEVIANYMNIHSSSGVKRTAKDVIGKA

Variants of: B1
Experiment: abundance fitness (aPCA) (normalised: wild type 0, dead -1); higher = more abundant; growth selection in yeast, the domain comes from the species named
Conditions: Homo sapiens

Abundance fitness: each site, then its substitutions
I36: N 0.049, P -0.994, Q 0.079, S 0.014, T -0.007, W -0.134, Y -0.141
H37: Y -0.044
S38: A -0.224, C -0.169, D -0.61, E -0.609, F -0.822, G -0.069, H -0.525, I -1.04, K -0.517, L -0.86, N -0.162, P -0.936, Q -0.176, R -0.435, T -0.116, V -0.755, W -1, Y -1.03
S39: A 0.122, D 0.03, E 0.076, F -0.362, G 0.016, H 0.05, I -0.197, K -0.086, L -0.095, M -0.122, N -0.076, P 0.001, Q -0.102, R 0, V -0.158, W -0.183, Y -0.339
S40: A 0.009, C -0.217, D -0.282, E -0.336, F -0.559, H -0.125, K -0.302, L -0.306, M -0.536, N -0.16, P -0.52, Q -0.158, R -0.286, T -0.166, V -0.484, W -0.646, Y -0.504
G41: A 0.089, C -0.103, D -0.066, E -0.151, F 0.064, H -0.129, I -0.119, K 0.001, L -0.186, M -0.035, N -0.143, P -0.114, R -0.061, T -0.072, W -0.645, Y -0.25
V42: A -0.685, F -0.145, I 0.093
K43: A -0.133, C -0.06, D -0.015, E -0.096, F -0.179, G -0.302, H -0.173, I -0.147, L -0.067, M -0.146, N -0.025, P -0.209, R -0.045, S -0.153, T -0.006, W -0.259
T45: I -0.33
A46: C -0.094, E -0.067, F -0.366, G -0.246, H -0.309, I -0.167, K -0.087, L -0.355, M -0.22, N -0.567, P -0.083, Q -0.089, R -0.222, S -0.099, T -0.114, W -0.348, Y -0.305
K47: A 0.054, C -0.206, E 0, F -0.22, G -0.039, I -0.017, L -0.097, M -0.111, N -0.065, P -0.133, Q 0.057, R -0.056, S 0.033, T 0.08, V -0.095, W -0.266, Y -0.212
D48: A -0.262, C -0.393, E 0.042, F -1.06, G -0.554, H -0.539, K -0.973, L -0.838, M -0.396, N -0.623, P -1.01, Q -0.105, R -0.708, S -0.212, T -0.563, V -0.759, W -0.845, Y -1.04
V49: A -0.219, C -0.031, D -0.877, E -0.897, F -0.721, H -0.883, I -0.069, K -1.02, L -0.258, N -0.938, P -1.18, Q -0.744, R -0.888, S -0.886, W -0.758
I50: A 0.085, C -0.228, D -0.224, E 0.095, G -0.113, H -0.146, L -0.06, N -0.229, P -0.632, R 0.096, T -0.267, V 0.03, W -0.085, Y -0.006
G51: A -0.019, C -0.142, D 0.063, E 0.016, F -0.136, H -0.206, I -0.176, K 0.12, L -0.159, M -0.106, P -0.194, Q -0.043, R 0, S -0.014, T -0.065, W -0.064, Y -0.099
K52: A -0.01, C -0.033, D -0.666, E -0.006, F -0.329, G -0.006, H -0.126, I -0.094, L -0.385, M -0.247, N -0.358, P -0.077, Q -0.012, R -0.119, S -0.252, T -0.197, V -0.181, W -0.018
A53: C -0.188, D -0.08, G -0.112, H -0.233, L -0.634, P -0.775, Q -0.081, R -0.498, S -0.001, T -0.254, V -0.035, Y -0.629
